Test results: patent publication US20070059320A1

Target: NADH dehydrogenase subunit 2 (ND2), native protein in brain lysates, PSD preparations, hippocampal neurons and tissues (rat) (UniProt P11662)
Test: cell-based or functional assay

Chain of NADH dehydrogenase subunit 2 (ND2), native protein in brain lysates, PSD preparations, hippocampal neurons and tissues (rat) (P11662 whole entry): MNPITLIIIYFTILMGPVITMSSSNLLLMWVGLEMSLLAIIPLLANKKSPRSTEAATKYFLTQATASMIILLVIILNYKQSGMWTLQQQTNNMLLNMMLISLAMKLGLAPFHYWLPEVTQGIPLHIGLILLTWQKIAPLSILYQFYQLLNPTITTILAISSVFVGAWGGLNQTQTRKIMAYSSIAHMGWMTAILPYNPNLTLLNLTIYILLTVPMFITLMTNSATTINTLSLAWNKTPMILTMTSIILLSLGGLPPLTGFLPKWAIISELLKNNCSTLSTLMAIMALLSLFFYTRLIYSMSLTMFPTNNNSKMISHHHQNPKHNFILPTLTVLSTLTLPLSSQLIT

NMDAR component of mEPSCs (cultured hippocampal neurons, whole-cell recording): 56%
Substance: Src40-58 peptide (amino acid residues 40-58 of SEQ ID NO:4)
